The target in this assay is BDBV GP ectodomain (Bundibugyo virus).

The record followed here is patent US20200040065A1 (INTEGRATED BIOTHERAPEUTICS, published 2020).

What is called EC50 is the concentration that produces a half-maximal response. A low value points to higher potency in that assay.

B1: monoclonal antibody CA45 (antibody, V domains shown)
VH: QVQLQEWGEGLVKPSETLSLTCAVYGGSISGYYHWNWIRLPPGKGLEWIGNIDNSASTNYNPSLKTRVTISKDTSKNQISLKVRSLTAADTAVYYCARDPGFTIFGVVITSWSGLDSWGQGAVVTVSS
VL: DIQMTQSPSSLSASVGDTVTITCRASQSISNNLAWYQQRPRRAPQLLIYAASNLASGVPSRFSGSGSGTDFTLTISSLQAEDFAAYYCQQHNTLPLTFGGGTKVEI
B1 had an EC50 of 0.65 to 1.41 nM.
